{
  "source": "patent US20210386836",
  "key": {"C2a, P06681": {"biological_target": "T1, C2a, P06681", "T1 chain": "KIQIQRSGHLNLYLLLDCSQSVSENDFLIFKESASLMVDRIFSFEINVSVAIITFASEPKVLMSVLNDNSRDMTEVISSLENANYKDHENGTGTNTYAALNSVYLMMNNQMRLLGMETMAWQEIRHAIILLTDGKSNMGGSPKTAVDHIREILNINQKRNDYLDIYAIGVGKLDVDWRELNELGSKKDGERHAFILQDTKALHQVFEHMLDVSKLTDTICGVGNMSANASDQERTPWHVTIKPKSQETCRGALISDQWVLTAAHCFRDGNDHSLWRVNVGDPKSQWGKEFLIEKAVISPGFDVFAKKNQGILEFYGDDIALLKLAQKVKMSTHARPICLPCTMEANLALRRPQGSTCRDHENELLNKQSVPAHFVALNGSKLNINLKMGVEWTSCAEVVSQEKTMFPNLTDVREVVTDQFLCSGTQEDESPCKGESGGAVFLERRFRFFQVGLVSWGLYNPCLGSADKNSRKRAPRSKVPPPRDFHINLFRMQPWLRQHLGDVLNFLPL"}, "C2, P06681": {"biological_target": "T2, C2, P06681", "T2 chain": "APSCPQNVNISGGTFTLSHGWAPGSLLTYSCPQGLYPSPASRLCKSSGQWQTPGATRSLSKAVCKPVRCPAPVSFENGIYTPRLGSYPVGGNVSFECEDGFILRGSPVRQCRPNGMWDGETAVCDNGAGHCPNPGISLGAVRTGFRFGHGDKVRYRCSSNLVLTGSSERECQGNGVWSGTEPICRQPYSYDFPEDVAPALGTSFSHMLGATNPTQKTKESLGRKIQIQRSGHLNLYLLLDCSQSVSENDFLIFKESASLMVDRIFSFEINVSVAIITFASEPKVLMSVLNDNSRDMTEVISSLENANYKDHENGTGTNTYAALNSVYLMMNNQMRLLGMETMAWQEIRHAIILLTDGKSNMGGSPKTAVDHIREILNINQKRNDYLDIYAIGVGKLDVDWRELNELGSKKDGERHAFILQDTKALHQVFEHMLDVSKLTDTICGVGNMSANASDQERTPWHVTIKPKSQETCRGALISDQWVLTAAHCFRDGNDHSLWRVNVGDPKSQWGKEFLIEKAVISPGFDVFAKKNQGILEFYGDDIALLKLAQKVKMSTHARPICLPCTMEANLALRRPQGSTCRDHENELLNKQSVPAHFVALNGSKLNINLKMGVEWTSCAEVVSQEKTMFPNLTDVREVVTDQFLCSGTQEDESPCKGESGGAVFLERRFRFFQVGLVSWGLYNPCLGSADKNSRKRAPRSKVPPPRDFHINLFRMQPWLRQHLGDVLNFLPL"}, "Factor H, P08603": {"biological_target": "T3, Factor H, P08603", "T3 chain": "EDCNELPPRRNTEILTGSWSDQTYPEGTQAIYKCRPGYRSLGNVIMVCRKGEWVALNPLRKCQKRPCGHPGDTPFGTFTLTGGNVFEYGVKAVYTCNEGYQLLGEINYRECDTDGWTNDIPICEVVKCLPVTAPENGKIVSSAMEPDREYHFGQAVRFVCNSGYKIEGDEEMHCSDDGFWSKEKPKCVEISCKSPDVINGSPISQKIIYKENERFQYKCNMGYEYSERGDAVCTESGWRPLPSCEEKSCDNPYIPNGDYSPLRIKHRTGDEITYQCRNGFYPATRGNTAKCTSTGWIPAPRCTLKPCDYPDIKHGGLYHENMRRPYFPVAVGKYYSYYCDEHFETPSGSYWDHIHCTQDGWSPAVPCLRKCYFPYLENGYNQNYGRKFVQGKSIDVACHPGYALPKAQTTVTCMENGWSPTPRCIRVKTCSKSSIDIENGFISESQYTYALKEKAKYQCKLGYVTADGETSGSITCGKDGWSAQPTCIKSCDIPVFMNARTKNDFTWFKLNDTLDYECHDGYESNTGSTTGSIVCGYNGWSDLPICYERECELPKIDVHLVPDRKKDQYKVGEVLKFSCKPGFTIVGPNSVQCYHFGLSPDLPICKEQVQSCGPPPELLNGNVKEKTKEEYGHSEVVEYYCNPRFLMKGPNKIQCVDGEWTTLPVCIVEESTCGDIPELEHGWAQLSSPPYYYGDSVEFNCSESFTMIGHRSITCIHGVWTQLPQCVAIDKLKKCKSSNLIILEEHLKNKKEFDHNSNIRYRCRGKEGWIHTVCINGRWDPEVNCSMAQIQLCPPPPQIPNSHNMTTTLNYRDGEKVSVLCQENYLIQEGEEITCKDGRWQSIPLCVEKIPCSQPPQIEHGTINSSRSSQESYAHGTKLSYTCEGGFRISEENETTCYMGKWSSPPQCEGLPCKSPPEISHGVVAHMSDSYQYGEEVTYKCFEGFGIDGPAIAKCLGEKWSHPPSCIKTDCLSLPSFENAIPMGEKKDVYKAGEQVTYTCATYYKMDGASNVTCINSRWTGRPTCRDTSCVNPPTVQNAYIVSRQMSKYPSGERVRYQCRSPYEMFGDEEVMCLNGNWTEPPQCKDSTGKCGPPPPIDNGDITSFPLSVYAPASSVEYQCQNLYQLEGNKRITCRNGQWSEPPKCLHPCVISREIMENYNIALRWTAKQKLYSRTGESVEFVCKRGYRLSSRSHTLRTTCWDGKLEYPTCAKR"}},
  "data": [
    {"protein": "PrtI(ProB) (protein, not fully specified; X: residue not identified in the source) AIGETSVQNVKVSVAKNESDSQKFNNSQNLEQKTPQAAAANQNGSQVQNDHTETQLQNQQTTQSQVTQAHTEENNASSIPEPANQADHVKGNVQSAWDQGYKGQNTVVAVIDSGADTSHKDFQTMPSNPKLKQEDVQSKIDQQGYGKYVNEKFPYVYNYADRDNDYIKSDDNNQXNDSPHGQHVSGIIAADGHPEGDQQYVVGVAPEAQLMQLRVFGQFSDEKTDDVARAIYDATNLGADVIQMSLGQGVADQQLTNIEQKAVQYAIDHGVFVSISASNNGNSASVDNPSKVTAKGYGSGSEAGNYEPLNSGTVANPGASKNALTVAAETSGTGKDSDMASFSSWGPLSDFSLKPDLSAPGYQVVSTVNDNQYQTMSGTSMAGPFAAGSAALVIQRLKQTNPELKGAELVAATKALLMNSAKVQTQNGYTTPVSPRRQGAGQIDVGAATANPVYVTAADGTSSLSLRQVDEKTTFTLTFHNLTDQEQSYSFNDLGGGYTEQRDPDSGVFHEVQLAGAHVNGVGNFTLAPKEVKDLQYTLDLQGLNKNQPVEGWLHFTNDKDKSTVVVPYLAYYGDLTSENVFDQNANEEKPDIQGNRFVNENNYPLGVTDQESLKQLVNVDSDYNWQEVAKLYESGKVAFSPNDDHQSDLIKPYAYLKQNVKDLKVEILDAKGNVVRVVSDVQGVDKSYDESGVTKDASLSVSMRDNPDAFEWDGKVYDTKTGQMVTAPDGQYTYRFVATLWNEGPNQKQTADFPVVVDTQAPSLSVKYDSATHTLSGNYEDKGAGFTDYSYVTVQVNDKVFGYKLNEGESGFDNSEKTKGHFNFTLSSDALDALSGSLNKVSVTLSDVANNTTVKTVDVPAVKDQPAVSVWNATEGVEFNKNSKDYNKENDTYTLYGSAAQDFYLNGALVQVRDGKYEVPVKTTTQDLVFSTDQAGKNVLKSFTTFTPKAFFNWQNVDGFDGNFGVNIYSVKTNDPNNAVVQAAVPLGKNVKAYAQDYFTGEVYKGQVENGVATFHVHTSINQGEDGIFKRALLTGWSEVDGPAYNDKQVTSKAGVASSNHLGVYYTTDKVNRKVYTDRADLGVDVQDEAADLSSFGPTAYPGHALADLTTRTDPNPAIHFDYLNDNDTTRFGQNAVTDGYYDSVTKKFTVTGHVDPEVKSLTVLGDSSDENAPQNQVKLGKDGKFSFSFTTENVGQRPVAYIYTDQNGQKVRGTLNVVLDTVAPTLNVDQVNGNELEVKTNNPLFKLSGVVNDNLDGYRLYVNGNNIYREFLNSGYNKLAGLNTDGTDVNPYGPHNFEESFNLNDDNNQPTTHVFTIYVVDQVGNKVEKKIAVNYDPDYVA", "values": [
      {"measurement": "proteolytic activity (SDS-PAGE)", "setting": "C4", "value": "None of the complement proteins tested show evidence of breakdown"},
      {"measurement": "proteolytic activity (SDS-PAGE)", "setting": "C2a, P06681", "value": "None of the complement proteins tested show evidence of breakdown"},
      {"measurement": "protein cleavage assay (SDS-PAGE)", "setting": "C3a, P01024", "value": "has activities against"},
      {"measurement": "proteolytic activity (control of enzyme stock)", "setting": "C3a, P01024", "value": "shown to be active against C3a"},
      {"measurement": "proteolytic activity (SDS-PAGE)", "setting": "C2, P06681", "value": "None of the complement proteins tested show evidence of breakdown"},
      {"measurement": "protein cleavage assay (SDS-PAGE)", "setting": "IP-10", "value": "has activities against"},
      {"measurement": "protein cleavage assay (SDS-PAGE)", "setting": "TNF-α", "value": "has activities against"},
      {"measurement": "proteolytic activity (SDS-PAGE)", "setting": "Factor H, P08603", "value": "None of the complement proteins tested show evidence of breakdown"},
      {"measurement": "proteolytic activity (SDS-PAGE)", "setting": "Factor B, P00751", "value": "None of the complement proteins tested show evidence of breakdown"},
      {"measurement": "protein cleavage assay (SDS-PAGE)", "setting": "IL-17", "value": "has activities against"},
      {"measurement": "proteolytic activity (SDS-PAGE)", "setting": "C3, P01024", "value": "None of the complement proteins tested show evidence of breakdown"}
    ]}
  ]
}
